Biological target: T1, CD3-His蛋白(MP-5)
T1 construct: Immunogen and panning antigen; also called CD3蛋白
Experiment: BLI (Octet RED96) off-rate screening, sdAb-SASA from expression medium captured on BSA-coated biosensor, CD3 at 100 nM in solution, 30°C, 1:1 Langmuir model

B1: A30322 抗CD3单域抗体 (sdAb) (VHH)
VHH: EVQLVECGGGLVQAGGSLRLSCAASGRTFDTMGWFRQAPGKEREFVAAVRWSSGNTYYGNTVKGRFTISRDTATNTVYLEMNSLKHEDTAVYYCAARLAGRGAADHWGQGTQVTVSS
notes: Llama-derived sdAb; Tested as crude sdAb-SASA protein in E. coli expression medium / culture supernatant (FASEBA format), not purified; also called sdAb-SASA蛋白; not shown: SASA fusion partner from the pFASEBA vector (sdAb-SASA protein in expression medium)
  koff: 1.43e-05 s⁻¹

Source: patent CN106117361A (UNIV SUN YAT SEN, dated 2016)
